From patent US20250215104A1 (WALDEN BIOSCIENCES, published 2025)
Where a chain is given by its changes, count along the chain named.

B1: suPAR_DB01_A02 (scFv, V domains shown)
VH: EVQLEESGAELVRPGALVKLSCKASGFNIKDYYIHWVKQRPEQGLEWIGWIDHENGNTIYDPKFQGKASITLDTSSNTAYLQLNSLTSEDTAVYYCARGYDVDWFVYWGQGTLVTVSS
VL: QIVLTQSPAIMSASPGEKVTIYCSARSSVSYMYWYQQKPGSSPKPWIYRTSNLASGVPARFSGSGSGTSYSLTISSMEAEDAATYYCQQYHSYPPTFGGGTKLEIK
notes: screened as scFv
B2: suPAR_DB01_C01 (scFv, V domains shown)
VH: QVQLVQSGAEVKKPGASVKVSCKASGYTFTGYYMHWVRQAPGQGLEWMGWIDHENGNTIYDQKFQGRVTMTRDTSTSTVYMELSSLRSEDTAVYYCARGYDVDWFVYWGQGTLVTVSS
VL: DIQMTQSPSSLSASVGDRVTITCSARSSVSYMYWYQQKPGKAPKLLIYRTSNLASGVPSRFSGSGSGTDFTLTISSLQPEDFATYYCQQYHSYPPTFGGGTKVEIK
notes: screened as scFv
B3: suPAR_DB01_A03 (scFv, V domains shown)
VH: B2 VH with G31S, Y32N, M34I, N57S, I59S
VL: B2 VL
notes: screened as scFv
B4: suPAR_DB01_A05 (scFv, V domains shown)
VH: B2 VH
VL: B2 VL with S24R, S27Q
notes: screened as scFv
B5: suPAR_DB01_A06 (scFv, V domains shown)
VH: B2 VH with G31S
VL: B2 VL with S24R, S27Q
notes: screened as scFv
B6: suPAR_DB01_A04 (scFv, V domains shown)
VH: B2 VH
VL: B2 VL with R26S, S27Q
notes: screened as scFv
B7: suPAR_DB06_E05 (scFv, V domains shown)
VH: B2 VH with G31S, Y32H, M34I, H35Q, Y100T
VL: B2 VL
B8: suPAR_DB06_E01 (scFv, V domains shown)
VH: QVQLVQSGAEVKKPGASVKVSCKASGFNFKDYYIHWVRQAPGQGLEWMGWMDPSSGNTAYAQKFQGRVTMTRDTSTSTVYMELSSLRSEDTAVYYCARGYDVDWFVYWGQGTLVTVSS
VL: B2 VL with S27Q, V29I
B9: suPAR_DB06_E08 (scFv, V domains shown)
VH: B2 VH with T28G, G31D, E54S, N55G, D61A
VL: B2 VL with S27Q
B10: suPAR_DB06_G06 (scFv, V domains shown)
VH: B2 VH with Y27F, G31A, H53P, D61A
VL: B2 VL with R26S, S27Q
B11: suPAR_DB06_F11 (scFv, V domains shown)
VH: B2 VH with G31N, N57S, D61A
VL: B2 VL with A54Q
B12: suPAR_DB06_G03 (scFv, V domains shown)
VH: B2 VH with T30S, G31S, H53P, N55G, D61A
VL: B2 VL
B13: suPAR_DB06_F02 (scFv, V domains shown)
VH: B2 VH with G31N, N57S, I59S
VL: B2 VL with S24R, S27Q
B14: suPAR_DB06_F06 (scFv, V domains shown)
VH: B2 VH with Y27G, T30I, Y32H, M34V
VL: B2 VL
B15: suPAR_DB06_F03 (scFv, V domains shown)
VH: B2 VH with T28S, G31N, Y100N
VL: B2 VL with R26S, S27Q
B16: suPAR_DB06_E07 (scFv, V domains shown)
VH: B2 VH with G31N, M34L, H53P, E54H, N55S, N57G, I59N, D61A, R98S
VL: B2 VL
B17: suPAR_DB06_E11 (scFv, V domains shown)
VH: B2 VH with D61A
VL: B2 VL with R26S
B18: suPAR_DB06_E12 (scFv, V domains shown)
VH: B2 VH with G31S, I59S, D61A
VL: B2 VL with S24R
B19: suPAR_DB06_F12 (scFv, V domains shown)
VH: B2 VH with T30S, G31S, H53P, D61A
VL: B2 VL with S24R, S27Q
B20: suPAR_DB06_G01 (scFv, V domains shown)
VH: B2 VH with Y27D, N57S, D61A
VL: B2 VL
B21: suPAR_DB06_F01 (scFv, V domains shown)
VH: B2 VH with Y27G, G31S, M34V, H53P, N55G, I59S
VL: B2 VL
B22: suPAR_DB06_E09 (scFv, V domains shown)
VH: B2 VH with Y27H, G31N, M34V, N57S, I59S
VL: B2 VL
B23: suPAR_DB06_F09 (scFv, V domains shown)
VH: B2 VH with G31T, H53P, N55G
VL: B2 VL with R26S, S27Q
B24: suPAR_DB06_G02 (scFv, V domains shown)
VH: B2 VH with T28N, F29I, G31D, M34I, H53P, N57S
VL: B2 VL with S24R
B25: suPAR_DB06_F04 (scFv, V domains shown)
VH: B2 VH with T28R, G31S, H53P, D61A
VL: B2 VL with S27Q
B26: suPAR_DB06_F08 (scFv, V domains shown)
VH: B2 VH with Y32N, M34V, E54S
VL: B2 VL
B27: suPAR_DB06_G04 (scFv, V domains shown)
VH: B2 VH with D52N, H53P, N55G, N57S, I59N, D61E
VL: B2 VL with S27Y
B28: suPAR_DB06_F05 (scFv, V domains shown)
VH: B2 VH with Y27D, T28S, M34I
VL: B2 VL
B29: suPAR_DB06_E06 (scFv, V domains shown)
VH: B2 VH with Y27D, F29S, G31S, N57S
VL: B2 VL
B30: suPAR_DB06_E10 (scFv, V domains shown)
VH: B2 VH with Y27D, T30I, G31S, H53P
VL: B2 VL
B31: suPAR_DB06_C05 (scFv, V domains shown)
VH: QVQLVQSGAEVKKPGASVKVSCKASGGTFSSYAISWVRQAPGQGLEWMGVIDPSGGTTDYAQKFQGRVTMTRDTSTSTVYMELSSLRSEDTAVYYCARGYDVDWFVYWGQGTLVTVSS
VL: DIQMTQSPSSLSASVGDRVTITCRTSQSISSFLNWYQQKPGKAPKLLIYDVSHLESGVPSRFSGSGSGTDFTLTISSLQPEDFATYYCQQYHSYPPTFGGGTKVEIK
B32: suPAR_DB03_A12 (scFv, V domains shown)
VH: QVQLVQSGAEVKKPGASVKVSCKASGYTFSRYYMHWVRQAPGQGLEWIGWMNPNTGDTGYAQKFQGRVTMTRDTSTSTVYMELSSLRSEDTAVYYCARGYDVDFFVYWGQGTLVTVSS
VL: DIQMTQSPSSLSASVGDRVTITCRASQGISGWLAWYQQKPGKAPKLLIYDASSLQSGVPSRFSGSGSGTDFTLTISSLQPEDFATYYCQQSYSDPLTFGGGTKVEIK
notes: screened as scFv
B33: suPAR_DB04_E02 (scFv, V domains shown)
VH: B2 VH with G31S, H53P, N57S
VL: B2 VL with S24R, R49A
notes: scFv clone from phage display

Target: T1, human soluble urokinase plasminogen activator receptor (suPAR) (human, UniProt Q03405 23-303, limits assumed)
T1 construct: Target antigen of the off-rate screen; also called hsuPAR; human suPAR
Experiment: off-rate (kdis) screen of scFv clones, biosensor (Octet)
T1 sequence (Q03405 23-303 limits assumed): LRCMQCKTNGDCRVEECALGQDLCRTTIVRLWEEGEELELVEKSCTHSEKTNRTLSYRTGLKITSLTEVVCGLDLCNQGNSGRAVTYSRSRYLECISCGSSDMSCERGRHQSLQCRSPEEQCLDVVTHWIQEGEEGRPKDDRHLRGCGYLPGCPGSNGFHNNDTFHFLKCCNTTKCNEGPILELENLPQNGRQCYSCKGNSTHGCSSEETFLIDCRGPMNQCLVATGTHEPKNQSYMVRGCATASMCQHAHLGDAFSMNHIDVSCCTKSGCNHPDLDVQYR

**Q.** With B1 as the binder, how does the koff read?
**A.** 3.54e-07 s⁻¹

**Q.** How did the koff turn out when B2 was run?
**A.** 0.00122 s⁻¹

**Q.** For B3, which koff is on record?
**A.** 0.00256 s⁻¹

**Q.** B4 was tested. Which koff did it give?
**A.** 0.00174 s⁻¹

**Q.** How did the koff turn out when B5 was run?
**A.** 0.00253 s⁻¹

**Q.** Which koff does the source give for B6 here?
**A.** 0.000911 s⁻¹

Target: T2, cynomolgus soluble urokinase plasminogen activator receptor (suPAR) (cynomolgus, UniProt Q9GK78 23-303, limits assumed)
T2 construct: Target antigen of the off-rate screen; also called cynomolgus uPAR; cynomolgus suPAR
Experiment: as above
Target sequence in this assay (Q9GK78 23-303 limits assumed): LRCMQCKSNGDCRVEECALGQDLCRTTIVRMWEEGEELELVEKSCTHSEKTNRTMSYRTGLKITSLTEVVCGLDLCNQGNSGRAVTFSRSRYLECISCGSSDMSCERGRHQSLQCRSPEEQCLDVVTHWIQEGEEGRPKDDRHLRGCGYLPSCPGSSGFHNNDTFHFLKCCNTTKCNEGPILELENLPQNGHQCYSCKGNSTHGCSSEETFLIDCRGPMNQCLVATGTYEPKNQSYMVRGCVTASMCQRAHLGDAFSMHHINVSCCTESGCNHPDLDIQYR

**Q.** How did the koff turn out when B2 was run?
**A.** 0.000266 s⁻¹

**Q.** B3 was tested. Which koff did it give?
**A.** 0.000231 s⁻¹

**Q.** B4 was tested. Which koff did it give?
**A.** 0.000326 s⁻¹

**Q.** Which koff does the source give for B5 here?
**A.** 4.27e-07 s⁻¹

**Q.** For B6, which koff is on record?
**A.** 0.00021 s⁻¹

Target: T3, human soluble urokinase plasminogen activator receptor (suPAR) (human, UniProt Q03405 23-303, limits assumed)
T3 construct: Target antigen of the scFv off-rate screen; also called hsuPAR; human suPAR
Experiment: BLI (Octet) off-rate screen of scFv clones
T3 sequence (Q03405 23-303 limits assumed): as the sequence (Q03405 23-303 limits assumed) above

**Q.** For B7, which koff is on record?
**A.** 0.00315 s⁻¹

**Q.** B8 was tested. Which koff did it give?
**A.** 0.00483 s⁻¹

**Q.** For B9, which koff is on record?
**A.** 0.00335 s⁻¹

**Q.** For B10, which koff is on record?
**A.** 0.00431 s⁻¹

**Q.** How did the koff turn out when B11 was run?
**A.** 0.000947 s⁻¹

**Q.** B12 was tested. Which koff did it give?
**A.** 0.00381 s⁻¹

**Q.** How did the koff turn out when B13 was run?
**A.** 0.00157 s⁻¹

**Q.** With B14 as the binder, how does the koff read?
**A.** 0.00331 s⁻¹

**Q.** B15 was tested. Which koff did it give?
**A.** 0.004 s⁻¹

**Q.** How did the koff turn out when B16 was run?
**A.** 0.00497 s⁻¹

**Q.** Which koff does the source give for B17 here?
**A.** 0.00118 s⁻¹

**Q.** Which koff does the source give for B18 here?
**A.** 0.00373 s⁻¹

**Q.** B19 was tested. Which koff did it give?
**A.** 0.00426 s⁻¹

**Q.** B20 was tested. Which koff did it give?
**A.** 0.00148 s⁻¹

**Q.** Which koff does the source give for B21 here?
**A.** 0.00305 s⁻¹

**Q.** B22 was tested. Which koff did it give?
**A.** 0.00316 s⁻¹

**Q.** B23 was tested. Which koff did it give?
**A.** 0.00302 s⁻¹

**Q.** How did the koff turn out when B24 was run?
**A.** 0.00384 s⁻¹

**Q.** How did the koff turn out when B25 was run?
**A.** 0.00574 s⁻¹

**Q.** For B26, which koff is on record?
**A.** 0.00174 s⁻¹

**Q.** How did the koff turn out when B27 was run?
**A.** 0.00549 s⁻¹

**Q.** Which koff does the source give for B28 here?
**A.** 0.00531 s⁻¹

**Q.** B29 was tested. Which koff did it give?
**A.** 0.00135 s⁻¹

**Q.** For B30, which koff is on record?
**A.** 0.00526 s⁻¹

**Q.** How did the koff turn out when B31 was run?
**A.** 0.373 s⁻¹

Target: T4, cynomolgus soluble urokinase plasminogen activator receptor (suPAR) (cynomolgus, UniProt Q9GK78 23-303, limits assumed)
T4 construct: Target antigen of the scFv off-rate screen; also called cynomolgus suPAR; cynomolgus uPAR
Experiment: BLI (Octet) off-rate screen of scFv clones
Target sequence in this assay (Q9GK78 23-303 limits assumed): as the sequence (Q9GK78 23-303 limits assumed) above

**Q.** Which koff does the source give for B7 here?
**A.** 0.000905 s⁻¹

**Q.** Which koff does the source give for B8 here?
**A.** 0.000126 s⁻¹

**Q.** Which koff does the source give for B9 here?
**A.** 2.02e-05 s⁻¹

**Q.** How did the koff turn out when B10 was run?
**A.** 5.28e-07 s⁻¹

**Q.** With B11 as the binder, how does the koff read?
**A.** 0.00059 s⁻¹

**Q.** For B12, which koff is on record?
**A.** 0.000231 s⁻¹

**Q.** Which koff does the source give for B13 here?
**A.** 0.000258 s⁻¹

**Q.** B14 was tested. Which koff did it give?
**A.** 0.00055 s⁻¹

**Q.** For B15, which koff is on record?
**A.** 0.00059 s⁻¹

**Q.** Which koff does the source give for B16 here?
**A.** 0.000388 s⁻¹

**Q.** B17 was tested. Which koff did it give?
**A.** 0.000723 s⁻¹

**Q.** B18 was tested. Which koff did it give?
**A.** 0.000164 s⁻¹

**Q.** Which koff does the source give for B19 here?
**A.** 0.000195 s⁻¹

**Q.** For B20, which koff is on record?
**A.** 0.000134 s⁻¹

**Q.** With B21 as the binder, how does the koff read?
**A.** 0.000197 s⁻¹

**Q.** B22 was tested. Which koff did it give?
**A.** 0.000301 s⁻¹

**Q.** For B23, which koff is on record?
**A.** 0.000353 s⁻¹

**Q.** How did the koff turn out when B24 was run?
**A.** 0.000375 s⁻¹

**Q.** B25 was tested. Which koff did it give?
**A.** 0.000315 s⁻¹

**Q.** For B26, which koff is on record?
**A.** 0.000537 s⁻¹

**Q.** With B27 as the binder, how does the koff read?
**A.** 0.000223 s⁻¹

**Q.** For B28, which koff is on record?
**A.** 3.1e-07 s⁻¹

**Q.** With B29 as the binder, how does the koff read?
**A.** 0.000319 s⁻¹

**Q.** How did the koff turn out when B30 was run?
**A.** 0.000271 s⁻¹

**Q.** With B31 as the binder, how does the koff read?
**A.** 0.0623 s⁻¹

Target: T5, human soluble urokinase plasminogen activator receptor (hsuPAR) (human, UniProt Q03405 23-303, limits assumed)
T5 construct: Target antigen of the off-rate screen; also called human suPAR; rhuPAR-His
Experiment: BLI (Octet) off-rate screen of scFv clones
T5 sequence (Q03405 23-303 limits assumed): as the sequence (Q03405 23-303 limits assumed) above

**Q.** With B32 as the binder, how does the koff read?
**A.** 0.0544 s⁻¹

Target: T6, human soluble urokinase plasminogen activator receptor (hsuPAR) (human, UniProt Q03405 23-303, limits assumed)
T6 construct: also called human suPAR; rhuPAR-His
Experiment: off-rate screen of scFv clones (kdis), Octet BLI
T6 sequence (Q03405 23-303 limits assumed): as above

**Q.** How did the koff turn out when B33 was run?
**A.** 0.00497 s⁻¹
